{
  "source": "patent US5935840A",
  "about": "“Activated recombinant adenovirus proteinases” (priority 1995, dated 1999)",
  "key": {"[1]": {"tested_on": "Ad2 proteinase (rEP protein)", "format": "biochemical, human adenovirus type 2", "conditions": "disrupted H2ts1 virus treated with DNase prior to the assay, plus recombinant proteinase", "source_text": "(§1) The nature of the proteinase cofactor(s) was pursued with the aid of the second assay, which utilizes the substrate (Leu-Arg-Gly-Gly-NH)2 -rhodamine. The design of this substrate was based on two facts. (1) It was known that the proteinase present in disrupted Ad2 virions would cleave small peptides with sequence similar to that found at natural cleavage sites in adenovirus virion precursors (Webster et al., 1989). (2) Cleavage of either tetra-peptide sequence from the substituted rhodamine substrate produces a very large increase, up to a 3500-fold, in fluorescence. Under conditions where only a small fraction of the rhodamine substrate is cleaved, the increase in fluorescence is proportional to the amount of proteinase present and to the time of incubation. Thus, the fluorescence assay provides a quantitative method for assessing proteinase activity that is more sensitive convenient and rapid than the gel electrophoresis assay.\n(§2) After determining the identity of the two cofactors, reconstitution of adenovirus proteinase activity in vitro with purified components was accomplished. […] In (a), Assays in 1 ml contained 1.2 nM rEP protein, 11.9 pM Ad2 DNA and the indicated concentrations of pVI-c peptide. The rate of substrate hydrolysis is the rate in the reaction minus the rate with the rEP protein and Ad2 DNA alone which was 0.068 pmol min^-1. In (b), Assays in 1 ml contained 1.2 nM rEP protein, 36 nM pVI-c peptide and the indicated concentrations of Ad2 DNA. The rate of substrate hydrolysis is the rate in the reaction minus the rate with the rEP protein and pVI-c alone which was 2.76 pmol min^-1. The concentration of (Leu-Arg-Gly-Gly-NH)2 -rhodamine was 5 μM, and its rate of hydrolysis to Leu-Arg-Gly-Gly-NH-rhodamine was determined by measuring the increase in fluorescence every 3 minutes for 15 minutes. The pVI-c peptide was assembled in a peptide synthesizer.\n(§3) Assays were performed in 400 μl of Assay Buffer (50 mM Tris-HCl, pH 7.4, 25 mM NaCl, 10 mM octylglucoside, and 1 mM dithiothreitol). The concentration of the fluorogenic substrate, (Leu-Arg-Gly-Gly-NH)2 -rhodamine was 5 μM. When present, the number of disrupted virus particles was 10^10 and the amount of recombinant proteinase was 0.12 mAU280 nm. […] After 30 minutes at 37° C., a 360 μl aliquot of the reaction was added to 340 μl of Assay Buffer minus octylglucoside, and the increase in fluorescence was measured. The excitation wavelength was 492 nm and the emission wavelength was 523 nm, both with a bandwidth of 5 nm. The change in fluorescence, ΔF, is the magnitude of the fluorescence from the sample minus the magnitude of the fluorescence from an identical solution without enzyme.\n(§4) DNase-treated disrupted virus was obtained by incubating 2×10^10 disrupted virions in 20 μl containing 0.1M NaAc, pH 5.0, 5 mM MgCl2, and 55 μg/ml DNase I for 4 minutes at 25° C. Then, EDTA to 23 mM and dithiothreitol to 2.3 mM were added, and the reactions were heated at 56° C. for 1 minute to inactivate the DNase.\n(§5) For the assays shown in FIG. 8, the DNase reactions were diluted by the addition of 380 μl Assay Buffer containing the substrate, the proteinase and either 2×10^10 molecules of Ad2 DNA (+) or no DNA (-). After 30 minutes at 37° C., 360 μl of the reactions were added to 340 μl Assay Buffer minus octylglucoside and the increase in fluorescence was measured. The assays in (B) and (C) were identical to those in (A) except that in (B) H2ts1 virus was added after the DNase was inactivated (i-DNase) and in (C) no Dnase was present. In (D) recombinant proteinase plus 10^10 molecules of Ad2 DNA were preincubated for 10 minutes at 37° C. before adding substrate.\n(§6) .dagger. All assays contained 8.3 nM rEP protein, 98 nM pVIc peptide, and\n(§7) 1 μM (Leu--Arg--Gly--Gly--NH)2rhodamine. The rate of substrate"}, "[2]": {"assay": "Stability/sensitivity of the peptide cofactor", "format": "physicochemical", "conditions": "boiling for 5 minutes"}, "[3]": {"molecular_target": "T1, Ad2 proteinase (rEP protein) (Human adenovirus C serotype 2, UniProt P03252)", "T1 construct": "Plasmid pT7AD23k6 contains the 204 codons of the Ad2 proteinase reading frame plus a translational termination codon; made in house; host or cells: E. coli BL21(DE3)", "T1 sequence (P03252 whole entry)": "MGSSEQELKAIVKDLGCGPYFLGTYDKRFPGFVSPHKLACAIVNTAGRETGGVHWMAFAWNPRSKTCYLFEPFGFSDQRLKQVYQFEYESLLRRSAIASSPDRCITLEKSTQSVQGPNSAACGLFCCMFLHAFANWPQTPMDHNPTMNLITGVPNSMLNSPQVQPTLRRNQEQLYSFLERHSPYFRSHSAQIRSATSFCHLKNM", "format": "biochemical, human adenovirus type 2", "conditions": "1.2 nM rEP protein, 36 nM pVI-c peptide, no DNA, 5 μM substrate, 1 ml", "source_text": "as §1, §2, §3, §4, §5, §6, §7"}, "[4]": {"molecular_target": "T2, recombinant Ad2 proteinase (Human adenovirus C serotype 2, UniProt P03252)", "T2 construct": "also expresses the wild-type 204-amino acid EP polypeptide; made in house; host or cells: E. coli BL21(DE3)", "T2 sequence (P03252 whole entry)": "as above", "assay": "Cofactor activity in HEP1DBP cleavage by recombinant Ad2 proteinase", "format": "biochemical, human adenovirus type 2", "conditions": "peptide mixed with recombinant Ad2 proteinase and Ad2 DNA", "procedure": "When purified HEP1DBP was incubated with disrupted wild-type adenovirus 2 virions, it was cleaved, as determined from the change in its mobility during SDS-polyacrylamide gel electrophoresis. No cleavage was observed when incubation was with disrupted H2ts1 virions alone.\nTo determine if the Ad12 carboxy-terminal fragment of pVI functioned as the EP co-factor, the corresponding synthetic peptide was mixed with recombinant Ad2 proteinase and Ad2 DNA, and incubated with the HEP1DBP substrate."}, "[5]": {"tested_on": "Ad2 major core protein precursor, pVII", "assay": "Assay of adenovirus proteinase activity in crude extracts: cleavage of [35S]-methionine-labeled pVII (SDS-PAGE, autoradiography)", "format": "biochemical, adenovirus type 2", "conditions": "purified from baculovirus-infected Sf9 insect cells"}, "[6]": {"tested_on": "(Leu-Arg-Gly-Gly-NH)2 -rhodamine", "assay": "Fluorescence assay of proteinase activity of virus and recombinant proteinase preparations", "format": "biochemical", "conditions": "about 5% pure, from Sf9 cells; Ad2 DNA and H2ts1 virions to provide cofactor", "source_text": "as §1\nas §3, with “The concentration of the fluorogenic substrate, (Leu-Arg-Gly-Gly-NH)2 -rhodamine was 5 μM.” left out\nDisrupted virus was obtained as follows: Twice CsCl-banded virus was dialyzed against 10 mM Tris-HCl, pH 8.0, 1mM EDTA and centrifuged at 100,000×g for 1 hour. The pellet was suspended in 10 mM Tris-HCl, pH 6.8, containing 20% (v/v) glycerol and, after three 10 second bursts of sonication, was stored at -20° C. The fluorogenic substrate was synthesized and purified at BNL by Dr. Walter Mangel, using methods similar to those previously described by Dr. Mangel. These methods are described in two U.S. Patents (U.S. Pat. No. 4,557,862 entitled \"Rhodamine derivatives as fluorogenic substrates for proteinases\" by Mangel, W. F., Leytus, S., and L. Helhado; issued Dec. 10, 1985; U.S. patent application Ser. No. 780,552; \"Novel rhodamine derivatives as fluorogenic substrates\" by Mangel, W. F., Leytus, S., and L. Helhado; filing date Sep. 24, 1985) and in other publications by Mangel and co-workers."}},
  "data": [
    {"substance": "DNase", "values": [
      {"measurement": "Proteinase activity lost relative to untreated H2ts1 virus", "setting": "[1]", "value": 94, "unit": "%"}
    ]},
    {"substance": "GVQSLHRRRCF [pVI-c peptide]", "values": [
      {"measurement": "Heat stability of cofactor activity", "setting": "[2]", "value": "did not irreversibly denature"},
      {"measurement": "Rate of substrate hydrolysis with the rEP protein and pVI-c alone", "setting": "[3]", "value": 2.76, "unit": "pmol min^-1"},
      {"measurement": "Cleavage of the HEP1DBP substrate", "setting": "[4]", "value": "Rapid and complete cleavage"}
    ]},
    {"substance": "vNPVAd2EP: recombinant Ad2 proteinase expressed in Sf9 insect cells from baculovirus vector vNPVAd2EP", "values": [
      {"measurement": "Activity in the crude extract assay", "setting": "[5]", "value": "active"},
      {"measurement": "Specific activity", "setting": "[6]", "value": "equivalent to that of bacterially-produced proteinase"}
    ]}
  ]
}
